Data taken from US8349320 (LA JOLLA INSTITUTE FOR ALLERGY AND IMMUNOLOGY, dated 2013).

T1: mouse BTLA expressed on cells (mouse, UniProt Q7TSA3 30-306)
T1 construct: whole, on cells; the GFP part is not described further; also called mBTLA
T1 sequence (looked up): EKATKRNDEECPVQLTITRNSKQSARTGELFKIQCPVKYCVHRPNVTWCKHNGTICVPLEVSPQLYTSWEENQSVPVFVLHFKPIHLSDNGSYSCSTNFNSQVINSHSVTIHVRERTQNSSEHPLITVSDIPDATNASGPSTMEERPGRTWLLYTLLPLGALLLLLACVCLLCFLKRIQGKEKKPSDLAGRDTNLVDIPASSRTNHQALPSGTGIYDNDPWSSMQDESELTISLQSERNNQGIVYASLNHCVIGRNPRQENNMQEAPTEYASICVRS


Assays:
[1] = target: T1, mouse BTLA expressed on cells; assay: flow cytometry saturation binding, Fc fusion on cells expressing mouse BTLA (FIG. 3B)
[2] = target: T2, human BTLA expressed on cells (human, UniProt Q7Z6A9 31-289); assay: flow cytometry saturation binding, Fc fusion on cells expressing human BTLA (FIG. 3B)
T2 construct: whole, on cells; also called hBTLA

[3] = target: T2, human BTLA expressed on cells; assay: flow cytometry saturation binding, Fc fusion on cells expressing human BTLA (FIG. 3A)
[4] = target: T1, mouse BTLA expressed on cells; assay: flow cytometry, graded hHVEM-Fc on cells expressing mouse BTLA (FIG. 3A)
[5] = target: T3, full length human LIGHT expressed on EL4 cells (human, UniProt O43557 1-240); assay: flow cytometry saturation binding, Fc fusion on EL4 cells expressing human LIGHT
T3 construct: whole, on cells; also called EL4-hLIGHT; hLIGHT-EL4 cells
T3 sequence (O43557 whole entry, the tested form may be a part): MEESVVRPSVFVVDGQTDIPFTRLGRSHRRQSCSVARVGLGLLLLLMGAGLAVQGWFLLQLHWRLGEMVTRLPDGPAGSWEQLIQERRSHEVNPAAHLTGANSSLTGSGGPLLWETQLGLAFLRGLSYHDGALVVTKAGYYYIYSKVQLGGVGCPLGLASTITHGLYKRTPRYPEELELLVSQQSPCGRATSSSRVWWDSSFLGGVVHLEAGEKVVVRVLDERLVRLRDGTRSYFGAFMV

Row | Binder | Kd [1] [nM] | Kd [2] [nM] | Kd [3] [nM] | binding result [4] | Kd [5] [nM]
1 | mouse HVEM-Fc (Fc fusion, UniProt Q80WM9 39-206, looked up, extracellular domain; Expressed in insect cells (baculovirus); also called mHVEM-Fc; mHVEM:Fc; not shown: Fc region of human IgG1) QPSCRQEEFLVGDECCPMCNPGYHVKQVCSEHTGTVCAPCPPQTYTAHANGLSKCLPCGVCDPDMGLLTWQECSSWKDTVCRCIPGYFCENQDGSHCSTCLQHTTCPPGQRVEKRGTHDQDTVCADCLTGTFSLGGTQEECLPWTNCSAFQQEVRRGTNSTDTTCSSQ | 24 | 27 | – | – | –
2 | human HVEM-Fc (Fc fusion, UniProt Q92956 39-202, looked up, in the FIG. 3H assay biotinylated with NHS-PEO4-Biotin, 2 biotin molecules per HVEM-Fc (sites not given), extracellular domain; Ecto domain of the TNFR fused to Fc of human IgG1; also called hHVEM-Fc; hHVEM:Fc; not shown: Fc region of human IgG1) LPSCKEDEYPVGSECCPKCSPGYRVKEACGELTGTVCEPCPPGTYIAHLNGLSKCLQCQMCDPAMGLRASRNCSRTENAVCGCSPGHFCIVQDGDHCAACRAYATSSPGQRVQKGGTESQDTLCQNCPPGTFSPNGTLEECQHQTKCSWLVTKAGAGTSSSHWV | – | – | 112 | no binding | 11
